# In patent US5801017A, “Production of recombinant factor Xa inhibitor of leech Hirudo medicinalis” (Bio-Technology General Corp., priority 1994, dated 1998):
# “And” between values parts separate entries of the source, which are not always exact repeats. Equal entries are not always repeated.
# B1: FXaI prepeptide expressed by plasmid pFSHI-6 (Met-His-His-His-His-His-His-Gly-Thr-Asp-Asp-Asp-Asp-Lys-FXaI) (protein)
# chain: MHHHHHHGTDDDDKYEVIYVDDPCEDSDCEDGNKCSPVTNECDCSPVRCRLHCNFYVKDSNGCETCACEPKCKHKNCPTGHHCNKLTNKCELKKQRRMG
# B2: mature recombinant FXaI obtained by enterokinase cleavage of the pFSHI-6 prepeptide (protein)
# chain: YEVIYVDDPCEDSDCEDGNKCSPVTNECDCSPVRCRLHCNFYVKDSNGCETCACEPKCKHKNCPTGHHCNKLTNKCELKKQRRMG
# B3: mature recombinant FXaI obtained by CNBr cleavage of the FXaI dimer (protein)
# chain: B2 chain
# B4: cleaved, refolded product: mature FXaI from the FXaI dimer (plasmid pMLK-XaI-D-11"m") cleaved with CNBr, then refolded (protein)
# chain: B2 chain
# Key:
# thrombin [1] = target: thrombin
# [2] = target: bovine Factor Xa (bovine) (UniProt P00743)
# [3] = target: bovine Factor Xa (bovine) (UniProt P00743); remark: listed apart in the source
# FXa = assay: chromogenic FXa inhibitory activity assay (hydrolysis of CHG); assay type: biochemical, bovine; conditions: for Inhibitory activity (specific activity), FXa: 1 mu = amount causing 50% inhibition with 2 nM FXa
# Experimental: Increasing amounts of FXaI purified on Mono-Q were preincubated for 3 minutes with 2 pmol bovine FXa in a 1 ml cuvette. The initial rate of hydrolysis of the substrate CHG was monitored at 405 nm (see Example 2). Fraction 47 was the peak fraction of a particular purification experiment.
# The assay of FXa inhibitory activity is based on the inhibition of the FXa-mediated hydrolysis of the chromogenic substrate methoxycarbonyl-D-cyclohexylglycyl-glycyl-arginyl p-nitroanilide (CHG) as described below.
# The appropriate substrate concentration was determined from the molar absorbance which is 8210 at 342 nm. The reaction mixture contains 50 mM Tris-HCl pH 8.2, 5 mM CaCl2, 200 mM NaCl, 0.1% PEG, 40 μM substrate, and approximately 2 nM FXa. The FXa concentration is determined more precisely from the initial (first 20 seconds) rate of CHG hydrolysis at 40 μM in the absence of inhibitor based on the kinetic parameters mentioned above.
# Inhibition of the increase in absorbance may be observed in the presence of the FXa inhibitory activity of an FXa inhibitor such as FXaI of the present invention. The inhibitor concentration is the difference in absorbance between the reaction in the presence and absence of inhibitor multiplied by the FXa concentration.
# This determination assumes the formation of a 1:1 enzyme-inhibitor complex, and further assumes that the dissociation constant is low enough (i.e., tight binding) to enable essentially total binding of the inhibitor (FXaI) to the enzyme (FXa). In fact, the saturation shape of the dose-response curve (FIG. 3) provides evidence that a finite and not negligible dissociation of the inhibitor-enzyme complex occurs under these conditions. The dose response curve is represented by the degree of inhibition versus FXaI concentration and is further described in Section 5.2.
# The degree of dissociation of the FXa-FXaI complex is characterized by the inhibition constant (Ki) and may be determined from the inhibited velocity of the hydrolysis of the chromogenic substrate CHG. […] The Ki of naturally occurring FXa in the chromogenic assay is about 9 nM.
# The determination of inhibitor concentration determined by the above method is therefore probably underestimated. It was found useful to define the FXaI concentration as the protein concentration (IC50) required to obtain a constant degree of inhibition, usually 50% and to define the amount causing 50% inhibition under these reaction conditions to be 1 milliunit (mu) or 1 pmol. IC50 is generally higher than Ki, and depending on the type of inhibition, can be shown to depend variously on substrate concentration, Ki, Km and other factors (Segel, I. (1974) "Enzyme Kinetics", Wiley Interscience). In fact, the range of values of IC50 was determined to be about 10-20 nM.
# The FXaI activity assay used to determine concentration during purification and characterization was performed in an Elisa Titertek Twin Reader, Type 380 (EF LAB). The final activity measurement of purified protein was also performed in a Phillips (model PU 8720) UV/Vis scanning spectrophotometer.
# thrombin [4] = assay: thrombin inhibition assay according to Lottenberg et al.; assay type: biochemical
# Experimental: The refolded and dialyzed protein so obtained was assayed for FXa inhibitory activity by the biochemical chromogenic assay described in Example 2. The results are shown in Table 6 as milliunits per mg protein (mu/mg). The amount of protein causing 50% inhibition in an assay mixture containing 2 nM FXa is defined as 1 mu. In addition, the refolded protein was also tested for its inhibitory effect on thrombin, another proteolytic enzyme of the coagulation cascade, which was assayed according to Lottenberg et al. Methods Enzymol. 80:341-361 (1981).
# [5] = target: bovine Factor Xa (bovine) (UniProt P00743); remark: listed apart in the source
# Factor Xa [6] = assay: prothrombinase complex assay (FXa 250 pM, prothrombin 2.67 µM, FVa, cephalin, Ca++)
# Factor Xa [7] = assay: prothrombinase complex assay, modified protocol (50 pM FXa, 1.35 µM prothrombin)
# Factor Xa [8] = target: Factor Xa
# [9] = target: FXaI prepeptide expressed by plasmid pFSHI-6 (Met-His-His-His-His-His-His-Gly-Thr-Asp-Asp-Asp-Asp-Lys-FXaI) (Hirudo medicinalis)
# murine plasma = assay: APTT coagulation assay in murine plasma; assay type: biochemical
# Experimental: (§1) APTT (activated partial thromboplastin time) of fresh murine or human plasma was monitored by visual assessment of its clotting in the absence or presence of various amounts of FXaI. Briefly, FXaI (up to 50 μl), 100 μl of plasma and 100 μl of partial thromboplastin (Actin-FS) were incubated for 3 minutes at 37° C. The coagulation cascade was activated by the addition of 100 μl of 20 mM CaCl2. The FXaI concentration in the abscissa is based on the assumption that 1 mu=1 pmol. Murine plasma--.circle-solid.; human plasma--.diamond-solid.. The arrows indicate the FXaI concentration at which doubling of the APTT is obtained.
# (§2) The inhibitory activity of FXaI was also assayed as the increase of the activated partial thromboplastin time (APTT) essentially as described in Spaethe, Haemostasis, AHS/Deutschland GmbH, Munich (1984), using as reagent Actin FS (Dade), which contains ellagic acid for activation of Factors XII and Factor XI, and soy bean phospholipid. Under these conditions, and in the presence of 20 mM CaCl2, only the intrinsic pathway of coagulation is activated.
# (§3) Isoform A (the major fraction of naturally occurring FXaI isolated from DLS) was used in these experiments. […] The protein concentration of this batch was assayed by SDS-Bradford (Macart and Gerbaut, Clin. Chim. Acta 122:93-101 (1982)) and was determined to be ~20 μg/ml.
# human plasma = assay: APTT coagulation assay in human plasma; assay type: biochemical
# Experimental: as §1, §2, §3
# [10] = target: bovine Factor Xa (bovine) (UniProt P00743); remark: listed apart in the source
# Target sequence in this assay (P00743 41-492): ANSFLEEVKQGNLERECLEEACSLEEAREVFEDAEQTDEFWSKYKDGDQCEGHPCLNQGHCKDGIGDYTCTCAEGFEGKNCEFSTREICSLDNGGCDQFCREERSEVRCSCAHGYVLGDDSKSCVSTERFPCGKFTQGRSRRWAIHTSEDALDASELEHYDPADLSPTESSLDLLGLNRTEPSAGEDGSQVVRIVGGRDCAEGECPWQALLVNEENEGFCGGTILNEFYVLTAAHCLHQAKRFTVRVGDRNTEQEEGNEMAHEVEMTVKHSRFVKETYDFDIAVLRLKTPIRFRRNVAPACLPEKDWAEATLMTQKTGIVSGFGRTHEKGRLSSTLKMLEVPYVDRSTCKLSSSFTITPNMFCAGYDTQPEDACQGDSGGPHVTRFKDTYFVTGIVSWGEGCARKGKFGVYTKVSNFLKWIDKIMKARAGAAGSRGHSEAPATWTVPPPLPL
# Factor Xa [11] = target: Factor Xa; remark: listed apart in the source
# [12] = target: bovine Factor Xa (bovine) (UniProt P00743); remark: listed apart in the source
# Target sequence in this assay (P00743 41-492): as above
# [13] = target: bovine Factor Xa (bovine) (UniProt P00743); remark: listed apart in the source
# Target sequence in this assay (P00743 41-492): as above
# [14] = target: bovine Factor Xa (bovine) (UniProt P00743); remark: listed apart in the source
# Target sequence in this assay (P00743 41-492): as above
molecule,measurement,setting,value
isoform B of naturally occurring FXaI isolated from DLS,"Specific activity, mu/mg (inhibition of thrombin)",thrombin [1],< 1 mu/mg
same,"Specific activity, mu/mg (inhibition of FXa, chromogenic assay)",[2],507 mu/mg
isoform A of naturally occurring FXaI isolated from DLS,activity in the chromogenic assay,[3],164 mu/ml
Met-His-His-His-His-His-His-Gly-Thr-Asp-Asp-Asp-Asp-Lys-FXaI [FXaI prepeptide],FXa inhibitory specific activity,FXa; prior to cleavage with enterokinase,1000-1200 mu/mg protein
"Refolded 11""f"": refolded fusion protein: 63 N-terminal amino acids of modified Cu/Zn-SOD, met-phe-val linker, FXaI tyr26 to gly110; plasmid pDeo-S-XaI-11""f""","Inhibitory activity (specific activity), FXa","FXa; listed as Refolded 11""f"" Batch 1",150 mu/mg
same,"Inhibitory activity (specific activity), FXa","FXa; listed as Refolded 11""f"" Batch 2",95 mu/mg
same,"Inhibitory activity (specific activity), FXa","FXa; listed as Refolded 11""f"" Batch 3",89 mu/mg
same,specificity for FXa versus thrombin,FXa; ratio of specific activities,greater than 80 fold
same,"Inhibitory activity (specific activity), Thrombin",thrombin [4],< 1 mu/mg
naturally occurring FXaI (Factor Xa inhibitor) purified from dilute leech saliva (DLS) of Hirudo medicinalis,IC50 in the chromogenic FXa assay,[5],10 to 20 nM
same,Ki,Factor Xa [6],0.072 nM
same,Ki,Factor Xa [7],0.12 nM
same,IC50 in the prothrombinase complex assay (generation of thrombin from prothrombin),Factor Xa [8],0.19 nM
"Enterokinase (Biozyme, Great Britain) (enzyme)",cleavage efficiency by SDS-PAGE analysis,[9],95%
"Isoform A: major fraction of naturally occurring FXaI from DLS, eluted by low salt gradient, 13-14 kD",concentration causing doubling of the APTT,murine plasma,3.5 mu/ml
same,"concentration causing doubling of the APTT, based on protein concentration",murine plasma,30 nM
same,concentration causing doubling of the APTT,human plasma,10 mu/ml
same,"concentration causing doubling of the APTT, based on protein concentration",human plasma,87 nM
same,"activity in the chromogenic assay, equivalent",FXa; assuming tight binding between FXa and inhibitor,164 pmol/mL
same,activity in the chromogenic assay,FXa; batch of ~20 μg/ml protein,164 mu/ml
B1,"FXa inhibitory specific activity in the chromogenic assay, prior to cleavage (mu/mg protein)",[10],1000 and 1200
B2,"FXa inhibitory specific activity in the chromogenic assay, after removal of the extension peptide by chromatography",[10],8000 mU/mg
same,"FXa inhibitory specific activity in the chromogenic assay, following cleavage with enterokinase (mu/mg protein)",[10],4000 and 4500
same,concentration causing doubling of the APTT,Factor Xa [11],12.2 µg/mL
B3,"specific activity in the chromogenic assay (route II: refolded, then cleaved with CNBr), A",[12],2470 mu/mg
same,"specific activity in the chromogenic assay (route II: refolded, then cleaved with CNBr), B",[13],4700 mu/mg
same,"specific FXa inhibitory activity in the chromogenic assay (route I: cleaved, then refolded)",[14],1900 mU/mg
B4,specific FXa inhibitory activity,"FXa; Route I: dimer cleaved with CNBr, then refolded",1900 mU/mg
